For test [1], the target named is murine IL-6 receptor (murine) (UniProt P22272).
Test [2] deals with recombinant human IL-6 (human).

On to “functionally neutralizing monoclonal antibody directed against the murine IL-6R (D7715A7, Pharmigen)”, for which, in test [1], the % Inhibition of B9 cell proliferation driven by 10 pg/ml hIL-6 (MTT, Absorbance570) came out at 80 % inhibition and the % Inhibition of B9 cell proliferation driven by 1:40 vIL-6 sup (MTT, Absorbance570) amounted to 53.8 % inhibition.
Consider “monoclonal antibody directed against murine IL-2 (S4B6, Pharmigen)”, for which the % Inhibition of B9 cell proliferation driven by 10 pg/ml hIL-6 (MTT, Absorbance570) in test [2] stood at 23.4 % inhibition.
